This passage reports Kd, koff and kon results from patent CN106699891A (BEIJING MABWORKS BIOTECH CO LTD, dated 2017).

This assay addresses T1, PD-L1-Fc (UniProt Q9NZQ7 19-238, limits assumed).
T1 construct: extracellular domain; not shown: Fc fragment of human IgG
The experiment in a line: SPR (Biacore), antibody captured by anti-human Fab on CM5 chip, PD-L1-Fc as analyte, 1:1 binding fit.

T1 sequence (Q9NZQ7 19-238 limits assumed): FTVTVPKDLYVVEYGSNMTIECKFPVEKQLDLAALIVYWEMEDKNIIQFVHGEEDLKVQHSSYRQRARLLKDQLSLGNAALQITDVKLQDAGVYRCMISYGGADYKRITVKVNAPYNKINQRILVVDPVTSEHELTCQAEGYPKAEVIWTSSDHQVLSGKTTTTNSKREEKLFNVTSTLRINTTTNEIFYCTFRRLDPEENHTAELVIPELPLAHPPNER

B1: Mil85-6抗体 (antibody, V domains shown)
VH: EVQLVESGGGLVQPGGSLRLSCAASGFTFADSWIHWVRQAPGKGLEWVAWISPFGGSNYYADSVKGRFTISADTSKNTAYLQMNSLRAEDTAVYYCARRHWPGGFDYWGQGTLVTVSS
VL: DIQMTQSPSSLSASVGDRVTITCRASQSIGTALNWYQQKPGKAPKLLIYTASSLQSGVPSRFSGSGSGTDFTLTISSLQPEDFATYYCQQDNYTPMTFGQGTKVEIK
notes: also called Mil85-6-5C6; 全抗体
In turn, B1 had a dissociation constant (Kd) of 0.429 nM, a koff of 0.000195 s⁻¹ and a kon of 457000 M⁻¹ s⁻¹.

One may read the Kd as the free concentration of one partner at which half of the binding sites on the other are occupied at equilibrium, for simple one-to-one binding. Low values mean a tighter complex, high ones a looser complex. Broadly, the koff is a measure of how fast the partners let go of each other. A low value points to a long-lived complex. As a reminder, the kon is a measure of how fast the partners come together.
